Results on 3 molecules are retold here after article PMC10442227, “Mechanistic and evolutionary insights into a type V-M CRISPR–Cas effector enzyme”.

Data set [1] addresses T1, Cas12m2 (UniProt PDB:8HIO_2 1-596).
T1 sequence: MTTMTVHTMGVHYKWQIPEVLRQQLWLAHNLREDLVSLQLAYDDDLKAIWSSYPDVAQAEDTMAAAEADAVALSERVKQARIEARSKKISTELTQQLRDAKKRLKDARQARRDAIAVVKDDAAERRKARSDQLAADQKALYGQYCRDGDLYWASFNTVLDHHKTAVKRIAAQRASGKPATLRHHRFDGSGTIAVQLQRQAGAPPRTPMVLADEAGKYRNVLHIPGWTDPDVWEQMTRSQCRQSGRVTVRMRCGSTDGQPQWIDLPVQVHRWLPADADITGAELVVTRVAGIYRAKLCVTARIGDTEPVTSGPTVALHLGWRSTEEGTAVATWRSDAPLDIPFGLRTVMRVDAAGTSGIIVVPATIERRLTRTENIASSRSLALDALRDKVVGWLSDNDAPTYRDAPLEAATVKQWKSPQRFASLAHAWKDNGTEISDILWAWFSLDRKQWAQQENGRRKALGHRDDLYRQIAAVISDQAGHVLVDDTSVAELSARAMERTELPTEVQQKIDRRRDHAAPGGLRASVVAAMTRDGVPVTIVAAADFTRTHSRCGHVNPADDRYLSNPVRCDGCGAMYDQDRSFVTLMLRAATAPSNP
Put plainly: cryo-EM; full R-loop state (state I), 17-bp heteroduplex; Mg2+, Zn2+; SPR: 20 mM HEPES pH 7.8, 150 mM KCl, 10% glycerol, 5 mM MgCl2, 1 mM DTT, 0.05% Tween-20, 25 C; cryo-EM: 20 mM HEPES-NaOH pH 7.6, 50 mM NaCl, 2 mM MgCl2, 10 uM ZnCl2. The conditions noted are these: protein: recombinant; tags: N-terminal His6; crRNA guide pairs with S4 (17 bp, R-loop); S4/S5 blunt 36-bp duplex.

Data set [2] has as its target T2, Cas12m2 (binary complex) (UniProt PDB:8HIO_2 1-596).
T2 sequence: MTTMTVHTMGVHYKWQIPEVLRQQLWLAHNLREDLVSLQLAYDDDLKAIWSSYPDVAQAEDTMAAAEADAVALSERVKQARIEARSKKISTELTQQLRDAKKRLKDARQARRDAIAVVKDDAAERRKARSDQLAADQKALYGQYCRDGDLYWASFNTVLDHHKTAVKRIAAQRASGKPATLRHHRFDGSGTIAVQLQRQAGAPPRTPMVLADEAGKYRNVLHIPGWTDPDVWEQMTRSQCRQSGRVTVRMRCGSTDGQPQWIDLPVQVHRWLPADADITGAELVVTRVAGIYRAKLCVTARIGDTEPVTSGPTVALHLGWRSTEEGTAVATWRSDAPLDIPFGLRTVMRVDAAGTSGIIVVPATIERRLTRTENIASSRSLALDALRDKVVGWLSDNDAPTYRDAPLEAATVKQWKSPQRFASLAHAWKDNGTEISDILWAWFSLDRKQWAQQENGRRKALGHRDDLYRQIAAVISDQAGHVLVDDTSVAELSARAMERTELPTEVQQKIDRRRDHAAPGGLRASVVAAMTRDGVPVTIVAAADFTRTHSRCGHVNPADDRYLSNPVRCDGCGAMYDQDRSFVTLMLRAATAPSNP
Briefly: cryo-EM; binary complex; SPR: 20 mM HEPES pH 7.8, 150 mM KCl, 10% glycerol, 5 mM MgCl2, 1 mM DTT, 0.05% Tween-20, 25 C; cryo-EM: 20 mM HEPES-NaOH pH 7.6, 50 mM NaCl, 2 mM MgCl2, 10 uM ZnCl2. The conditions noted are these: protein: recombinant; tags: N-terminal His6; chain copies: 2; stem and pseudoknot scaffold.

Data set [3] has as its target T3, Cas12m2 (SPR prep) (UniProt PDB:8HIO_2 1-596).
T3 sequence: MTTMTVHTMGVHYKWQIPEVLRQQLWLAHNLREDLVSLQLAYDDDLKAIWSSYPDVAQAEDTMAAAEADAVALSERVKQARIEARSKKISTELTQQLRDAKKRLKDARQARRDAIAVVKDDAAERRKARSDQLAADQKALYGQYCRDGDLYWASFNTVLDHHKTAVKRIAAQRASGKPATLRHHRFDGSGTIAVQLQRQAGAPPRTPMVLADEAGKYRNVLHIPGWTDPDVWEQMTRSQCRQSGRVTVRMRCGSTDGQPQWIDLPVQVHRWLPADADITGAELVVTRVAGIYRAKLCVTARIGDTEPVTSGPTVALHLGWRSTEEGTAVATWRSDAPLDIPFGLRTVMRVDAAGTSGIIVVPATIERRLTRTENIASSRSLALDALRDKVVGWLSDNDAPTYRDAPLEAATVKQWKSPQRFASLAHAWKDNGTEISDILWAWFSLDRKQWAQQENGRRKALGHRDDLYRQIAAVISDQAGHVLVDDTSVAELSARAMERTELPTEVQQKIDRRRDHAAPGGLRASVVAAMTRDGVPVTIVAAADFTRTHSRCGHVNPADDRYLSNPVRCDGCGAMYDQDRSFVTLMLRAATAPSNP
Briefly: SPR; 5 mM Mg2+; two-state fit, 8-63 nM RNP; SPR: 20 mM HEPES pH 7.8, 150 mM KCl, 10% glycerol, 5 mM MgCl2, 1 mM DTT, 0.05% Tween-20, 25 C; cryo-EM: 20 mM HEPES-NaOH pH 7.6, 50 mM NaCl, 2 mM MgCl2, 10 uM ZnCl2. The conditions noted are these: protein: recombinant; tags: pML-1B vector, nickel-purified (His); label: 5'-biotin on DNA top strand; guide pairs with DNA top strand; DNA blunt 50-bp duplex.

B1: crRNA (56 nt) + 36-bp target DNA (TTG PAM) (mixed)
RNA: GUGUCAUAGCCCAGCUUGGCGGGCGAAGGCCAAGACGGAGAUGAGGUGCGCGUGGC
DNA 1: GATGGTGCCACGCGCACCTCATCTCCCAAATAGACA
DNA 2: TGTCTATTTGGGAGATGAGGTGCGCGTGGCACCATC
With B1, in data set [1], the binding result is “binds”.

B2: crRNA (56 nt) (structured_RNA)
RNA: GUGUCAUAGCCCAGCUUGGCGGGCGAAGGCCAAGACGGAGAUGAGGUGCGCGUGGC
Regarding B2, the binding result in data set [2] is “binds”.

B3: PAM-SCNR RNA + 50-bp target dsDNA (mixed)
RNA: GUGUCAUAGCCCAGCUUGGCGGGCGAAGGCCAAGACGUCGAGUGCAAAACCUUUCG
DNA 1: CAGCTATAGTTCTCGAAAGGTTTTGCACTCGACTAAAGGACTCTATGACC
DNA 2: GGTCATAGAGTCCTTTAGTCGAGTGCAAAACCTTTCGAGAACTATAGCTG
On to B3, for which, in data set [3], the Kd is about 2.7 nM.
